Test results from paper PMC6212828.

Experiments:
[1] = test system: Fur (Bacillus subtilis); assay: EMSA; settings: EMSA with 1 mM MnCl2; ~1 fmol 32P-labelled probe (B, C) or ~180 ng DNA with ethidium bromide stain, 5% native PAGE (A); remaining buffer, pH and temperature …
[2] = biological target: T1, Fur (Bacillus subtilis) (UniProt P54574); assay: EMSA; settings: EMSA with 1 mM MnCl2; ~1 fmol 32P-labelled probe (B, C) or ~180 ng DNA with ethidium bromide stain, 5% native PAGE (A); remaining buffer, pH and temperature …
T1 sequence: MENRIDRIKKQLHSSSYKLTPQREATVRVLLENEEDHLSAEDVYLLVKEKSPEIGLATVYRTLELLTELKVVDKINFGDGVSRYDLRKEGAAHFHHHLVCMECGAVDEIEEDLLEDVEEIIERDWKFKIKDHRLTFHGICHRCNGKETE

Substance: catD ORF 218-bp HindIII fragment (+169 to +386)
- binding [1]: > 3 µM

Substance: catD promoter 323-bp HindIII fragment (-155 to +168)
- K half [1]: 500 nM

Substance: catD ORF probe (+137 to +278)
- binding [1]: > 2 µM

Substance: TAGACCTTTGTCCTGCACAGAGGTCTTTTTTTGTTACAGTTTTATAGTACTTTTATTTCATTTTCGTAAAATGTAACAAAATTACTTGACGTAAACAAGTTATGTATATATACTAGCTTACATTAAGTAAGTGATAACATTTATCAAGGAGGATAAAATGAATAAATCATTTGAAATTGGCACATTACTTTTAAGAG (double strand) [catD promoter probe (-121 to +76)]
- Kd [2]: 700 nM

Substance: catD promoter probe (-121 to +76)
- Kd [1]: 700 nM
